From publication PMC2926604 (Nucleic Acids Research, 2010)

T1: Archaeoglobus fulgidus exosome subunit Rrp42 (Archaeoglobus fulgidus, UniProt O29756 1-259)
T1 sequence: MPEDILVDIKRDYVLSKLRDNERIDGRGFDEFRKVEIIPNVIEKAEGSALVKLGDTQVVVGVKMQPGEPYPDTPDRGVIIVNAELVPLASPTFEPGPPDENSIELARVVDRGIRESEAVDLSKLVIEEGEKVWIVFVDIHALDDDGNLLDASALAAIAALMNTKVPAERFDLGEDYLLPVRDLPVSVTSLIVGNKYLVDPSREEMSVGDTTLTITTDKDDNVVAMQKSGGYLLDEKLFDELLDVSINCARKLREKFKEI

T2: Archaeoglobus fulgidus exosome subunit Rrp42 Y70A (Archaeoglobus fulgidus, UniProt O29756 1-259, Y70A)
T2 sequence: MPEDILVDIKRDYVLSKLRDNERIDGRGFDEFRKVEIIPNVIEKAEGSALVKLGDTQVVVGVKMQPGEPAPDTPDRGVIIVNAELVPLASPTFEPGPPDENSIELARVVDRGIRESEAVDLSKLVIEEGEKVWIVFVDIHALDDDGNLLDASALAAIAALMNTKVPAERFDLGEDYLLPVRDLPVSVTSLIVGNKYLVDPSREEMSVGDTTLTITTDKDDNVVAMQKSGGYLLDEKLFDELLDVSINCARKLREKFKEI

T3: Rrp41 (archaeal exosome subunit);Rrp42 Y70A;Csl4 (exosome cap) (Archaeoglobus fulgidus (printed …, UniProt O29757;O29756;O30033 1-258;1-259;1-179, |Y70A|))
T3 sequence 1: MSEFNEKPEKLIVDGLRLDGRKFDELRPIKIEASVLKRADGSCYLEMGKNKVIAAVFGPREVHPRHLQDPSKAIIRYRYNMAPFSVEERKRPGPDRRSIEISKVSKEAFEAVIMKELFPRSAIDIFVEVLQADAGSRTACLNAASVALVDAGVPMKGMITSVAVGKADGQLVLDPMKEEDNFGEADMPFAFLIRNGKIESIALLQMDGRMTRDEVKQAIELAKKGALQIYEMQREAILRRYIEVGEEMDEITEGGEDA
T3 sequence 2: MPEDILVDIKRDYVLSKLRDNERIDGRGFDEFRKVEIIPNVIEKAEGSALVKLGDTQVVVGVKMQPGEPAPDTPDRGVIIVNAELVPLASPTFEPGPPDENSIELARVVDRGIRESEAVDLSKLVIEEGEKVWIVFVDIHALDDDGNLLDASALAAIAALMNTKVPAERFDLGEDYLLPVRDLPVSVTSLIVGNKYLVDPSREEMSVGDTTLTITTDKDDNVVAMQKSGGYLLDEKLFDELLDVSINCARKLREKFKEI
T3 sequence 3: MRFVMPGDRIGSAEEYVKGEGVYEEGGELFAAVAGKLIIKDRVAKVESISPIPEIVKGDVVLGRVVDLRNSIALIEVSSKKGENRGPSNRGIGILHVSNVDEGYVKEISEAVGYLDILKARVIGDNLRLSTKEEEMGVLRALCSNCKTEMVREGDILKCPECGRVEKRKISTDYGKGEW

T4: Rrp41 (archaeal exosome subunit);Rrp42 (archaeal exosome subunit);Csl4 (exosome cap) (Archaeoglobus fulgidus (printed …, UniProt O29757;O29756;O30033 1-258;1-259;1-179, ||))
T4 sequence 1: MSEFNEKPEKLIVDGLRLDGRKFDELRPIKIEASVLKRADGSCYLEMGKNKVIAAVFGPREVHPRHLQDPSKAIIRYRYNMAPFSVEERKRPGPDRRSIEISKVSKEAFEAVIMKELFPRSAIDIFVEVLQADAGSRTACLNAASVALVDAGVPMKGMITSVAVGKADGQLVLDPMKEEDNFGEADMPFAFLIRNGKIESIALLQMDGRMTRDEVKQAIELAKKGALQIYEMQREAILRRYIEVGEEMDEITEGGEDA
T4 sequence 2: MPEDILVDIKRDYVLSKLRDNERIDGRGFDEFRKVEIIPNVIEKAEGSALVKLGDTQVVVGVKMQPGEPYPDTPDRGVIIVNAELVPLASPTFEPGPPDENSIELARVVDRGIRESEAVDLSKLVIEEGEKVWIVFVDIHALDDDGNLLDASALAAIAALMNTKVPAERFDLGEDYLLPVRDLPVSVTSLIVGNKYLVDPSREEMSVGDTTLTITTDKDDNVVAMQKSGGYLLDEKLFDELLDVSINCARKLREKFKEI
T4 sequence 3: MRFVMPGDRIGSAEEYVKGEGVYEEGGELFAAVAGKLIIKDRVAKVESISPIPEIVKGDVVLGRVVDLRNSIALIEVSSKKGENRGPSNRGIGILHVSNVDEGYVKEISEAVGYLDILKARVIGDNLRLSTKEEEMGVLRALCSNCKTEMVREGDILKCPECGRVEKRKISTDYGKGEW

B1: Archaeoglobus fulgidus exosome subunit Rrp41 (natural protein)
chain: MSEFNEKPEKLIVDGLRLDGRKFDELRPIKIEASVLKRADGSCYLEMGKNKVIAAVFGPREVHPRHLQDPSKAIIRYRYNMAPFSVEERKRPGPDRRSIEISKVSKEAFEAVIMKELFPRSAIDIFVEVLQADAGSRTACLNAASVALVDAGVPMKGMITSVAVGKADGQLVLDPMKEEDNFGEADMPFAFLIRNGKIESIALLQMDGRMTRDEVKQAIELAKKGALQIYEMQREAILRRYIEVGEEMDEITEGGEDA
B2: Archaeoglobus fulgidus exosome subunit Rrp41 D180A (natural protein)
chain: MSEFNEKPEKLIVDGLRLDGRKFDELRPIKIEASVLKRADGSCYLEMGKNKVIAAVFGPREVHPRHLQDPSKAIIRYRYNMAPFSVEERKRPGPDRRSIEISKVSKEAFEAVIMKELFPRSAIDIFVEVLQADAGSRTACLNAASVALVDAGVPMKGMITSVAVGKADGQLVLDPMKEEANFGEADMPFAFLIRNGKIESIALLQMDGRMTRDEVKQAIELAKKGALQIYEMQREAILRRYIEVGEEMDEITEGGEDA

Legend:
[1] = target: T1, Archaeoglobus fulgidus exosome subunit …; assay: SAXS
[2] = target: B2; assay: SAXS
[3] = target: B1; assay: crystal structure
[4] = target: T1, Archaeoglobus fulgidus exosome subunit …; assay: crystal structure
[5] = target: T2, Archaeoglobus fulgidus exosome subunit …; assay: crystal structure
[6] = target: T3, Rrp41 (archaeal exosome subunit);Rrp42 …; assay: X-ray crystallography
[7] = target: T4, Rrp41 (archaeal exosome subunit);Rrp42 …; assay: X-ray crystallography

binding result [1]	binding result [4]	binding result [5]	Binder	also measured
binds			Archaeoglobus fulgidus exosome cap subunit Rrp4 (natural protein, UniProt O29758 1-223, looked up) MRKIVLPGDLLSTNPRAAGYGTYVEGGKVYAKIIGLFDQTETHVRVIPLKGRYTPSVGDVVIGIIREVAANGWAVDIYSPYQAFLPVSENPEMKPNKKPNEVLDIGDAIIAKVLNIDPKMKVTLTMKDRICRPIRFGRIVAINPARVPRVIGKKGSMIKLLKSELDVQIVVGQNGLIWVNGDRRKVSIAEEAIYLIEQEAHTEGLTDRVAEFIKRRKADVGIQ	binding result [2]: binds
	binds	binds	Archaeoglobus fulgidus exosome cap subunit Csl4 (natural protein) MRFVMPGDRIGSAEEYVKGEGVYEEGGELFAAVAGKLIIKDRVAKVESISPIPEIVKGDVVLGRVVDLRNSIALIEVSSKKGENRGPSNRGIGILHVSNVDEGYVKEISEAVGYLDILKARVIGDNLRLSTKEEEMGVLRALCSNCKTEMVREGDILKCPECGRVEKRKISTDYGKGEW	binding result [3]: binds
	binds	binds	B1	
binds			B2	
			CCCCUC (ssRNA) [6-mer RNA for crystallization]	binding result [6]: binds; binding result [7]: binds
